According to patent publication US20240317834A1, “COMPOSITIONS AND METHODS FOR NEUROLOGICAL DISEASES” (CODA BIOTHERAPEUTICS, INC., priority 2020, published 2024):

Test system: Lenti-X 293T cells
Assay: YFP fluorescence quenching anion reporter plate reader assay of engineered receptors stimulated with acetylcholine or a non-native ligand
Assay type: cell-based
Text: To screen these mutant LGICs for those having novel response profiles to ligands, an anion reporter assay was developed to assess the function of the LGICs in a high throughput format. In this assay, cells expressing a YFP reporter whose fluorescence is quenched in the presence of anion are transfected with DNA encoding the channel of interest. Upon exposure to ligand, channels that are activated will flux anion, resulting in a dose-dependent quench of the YFP that can be detected on a plate reader. The greater the quench signal (i.e., the more positive the value), the higher the ligand activity on the receptor is.
Lenti-X 293T cells (LX293T, Clontech) were maintained in DMEM containing 10% FBS and 1% penicillin/streptomycin (Invitrogen). […] Two days before assay, cells were split at a density of 20,000 cells/well in a 96-well tissue culture plate coated with poly-d lysine (Thermo Scientific). The next day, the cells were transiently transfected with 0.1 μg of DNA per well using standard Fugene protocol (Promega). On the day of assay, cells were washed 2 times in 1× extracellular solution (1×ECS: 140 mM NaCl, 5 mM KCl, 1 mM MgCl2, 2 mM CaCl2), 10 mM HEPES, 10 mM glucose, pH 7.2, mOsms 300). After the last wash, 100 μL of 1×ECS was added to the wells and the plate was incubated at 37° C. for 30 min. While incubating the plate, the drugs were diluted to a 2× concentration in 1×ECS-NaI (same components as 1×ECS except the 140 mM NaCl was replaced by 140 mM NaI). The plates were then read on a Flexstation3 (Molecular Devices). Each well, 8 wells at a time, of the plate is read for 2 min using a Flexstation3 (Molecular Devices) as follows: 1) a baseline YFP fluorescence is read for 17 sec, 2) 100 μL of ligand is added, and 3) the changes in YFP fluorescence are then measured every 1.3 sec for 1 minute and 43 seconds. The percent quench is calculated from the average fluorescence of the last 10 seconds of the read divided by the baseline average of the first 15 seconds prior to the ligand addition.
FIGS. 1A-1J provide heat maps of the percent quench of YFP fluorescence following stimulation by various doses of either acetylcholine or the non-native ligand as indicated in the Figures. CODA71 (SEQ ID NO: 33) was used as a control, and CODA75 (SEQ ID NO: 29, a non-responding chimeric engineered receptor) was used as the negative control. Quenching of the fluorescence signal, as indicated by blue shaded cells, indicate the level of engineered receptor activation by the non-native ligand at that concentration.

B1: CODA333: engineered chimeric LGIC receptor, L131S in SEQ ID NO: 33 (protein)
chain: MRCSPGGVWLALAASLLHVSLQGEFQRKLYKELVKNYNPLERPVANDSQPLTVYFSLSLLQIMDVDEKNQVLTTNIWLQMSWTDHYLQWNVSEYPGVKTVRFPDGQIWKPDILLYNSADERFDATFHTNVSVNSSGHCQYLPPGIFKSSCPMDLKNFPMDVQTCKLKFGSWSYGGWSLDLQMQEADISGYIPNGEWDLVGIPGKRSERFYECCKEPYPDVTFTVTMRRRMGYYLIQMYIPSLLIVILSWISFWINMDAAPARVGLGITTVLTMTTQSSGSRASLPKVSYVKAIDIWMAVCLLFVFSALLEYAAVNFVSRQHKELLRFRRKRRHHKSPMLNLFQEDEAGEGRFNFSAYGMGPACLQAKDGISVKGANNSNTTNPPPAPSKSPEEMRKLFIQRAKKIDKISRIGFPMAFLIFNMFYWIIYKIVRREDVHNQ
modifications: synthetic sequence of chimeric LGIC
1 nM CNL001, first column
  YFP fluorescence quenching using CNL001: 76.165%
1 nM CNL001, second column
  YFP fluorescence quenching using CNL001: 78.463%
1 nM brd
  YFP fluorescence quenching using TC-5619/Bradanicline: −0.85%
3 nM brd
  YFP fluorescence quenching using TC-5619/Bradanicline: −2.05%
3 nM var, first column
  YFP fluorescence quenching using Varenicline: −4.782
3 nM var, second column
  YFP fluorescence quenching using Varenicline: 1.048
10 nM CNL001, first column
  YFP fluorescence quenching using CNL001: 79.349%
10 nM CNL001, second column
  YFP fluorescence quenching using CNL001: 78.238%
10 nM brd
  YFP fluorescence quenching using TC-5619/Bradanicline: −2.8%
30 nM brd
  YFP fluorescence quenching using TC-5619/Bradanicline: −2.07%
30 nM fac
  YFP fluorescence quenching using Facinicline: 6.27
30 nM var, first column
  YFP fluorescence quenching using Varenicline: 2.084
30 nM var, second column
  YFP fluorescence quenching using Varenicline: 5.022
50 nM CNL001, first column
  YFP fluorescence quenching using CNL001: 80.221%
50 nM CNL001, second column
  YFP fluorescence quenching using CNL001: 81.789%
50 nM abt
  YFP fluorescence quenching using ABT-126: −20.99%
100 nM CNL001, first column
  YFP fluorescence quenching using CNL001: 81.855%
100 nM CNL001, second column
  YFP fluorescence quenching using CNL001: 80.766%
100 nM CNL002
  YFP fluorescence quenching using CNL002: −15.44%
100 nM abt
  YFP fluorescence quenching using ABT-126: −16.21%
100 nM azd0328
  YFP fluorescence quenching using AZD-0328: 38.49%
100 nM brd
  YFP fluorescence quenching using TC-5619/Bradanicline: 30.34%
300 nM abt
  YFP fluorescence quenching using ABT-126: −13.34%
300 nM azd0328
  YFP fluorescence quenching using AZD-0328: 67.13%
300 nM brd
  YFP fluorescence quenching using TC-5619/Bradanicline: 50.56%
300 nM fac
  YFP fluorescence quenching using Facinicline: 69.8
300 nM var, first column
  YFP fluorescence quenching using Varenicline: 12.162
300 nM var, second column
  YFP fluorescence quenching using Varenicline: 12.979
500 nM var, first column
  YFP fluorescence quenching using Varenicline: 29.238
500 nM var, second column
  YFP fluorescence quenching using Varenicline: 25.614
1 uM CNL001, first column
  YFP fluorescence quenching using CNL001: 81.707%
1 uM CNL001, second column
  YFP fluorescence quenching using CNL001: 82.665%
1 uM CNL002
  YFP fluorescence quenching using CNL002: 15.21%
1 uM abt
  YFP fluorescence quenching using ABT-126: 4.96%
1 uM brd
  YFP fluorescence quenching using TC-5619/Bradanicline: 72.42%
1 uM tc6987
  YFP fluorescence quenching using TC-6987: −3.87
1 uM var, first column
  YFP fluorescence quenching using Varenicline: 43.863
1 uM var, second column
  YFP fluorescence quenching using Varenicline: 39.346
3 uM tc6987
  YFP fluorescence quenching using TC-6987: −20.2
5 uM tc6987
  YFP fluorescence quenching using TC-6987: −15.25
10 uM fac
  YFP fluorescence quenching using Facinicline: 80.07
10 uM tc6987
  YFP fluorescence quenching using TC-6987: 4.92
30 uM azd0328
  YFP fluorescence quenching using AZD-0328: 80.61%
30 uM fac
  YFP fluorescence quenching using Facinicline: 81.35
30 uM tc6987
  YFP fluorescence quenching using TC-6987: 14.75
50 uM tc6987
  YFP fluorescence quenching using TC-6987: 21.33
100 uM tc6987
  YFP fluorescence quenching using TC-6987: 29.7
300 uM tc6987
  YFP fluorescence quenching using TC-6987: 20.79
500 uM tc6987
  YFP fluorescence quenching using TC-6987: 44.37
TC-6683 30 nM
  percent quench of YFP fluorescence, 30 nM TC-6683: −23.88%
TC-6683 300 nM
  percent quench of YFP fluorescence, 300 nM TC-6683: −21.46%
TC-6683 3 uM
  percent quench of YFP fluorescence, 3 uM TC-6683: −21.07%
TC-6683 30 uM
  percent quench of YFP fluorescence, 30 uM TC-6683: −16.15%
TC-6683 100 uM
  percent quench of YFP fluorescence, 100 uM TC-6683: −18.96%
Acetylcholine 10 uM
  percent quench of YFP fluorescence, 10 uM ach: −10.11%
Acetylcholine 100 uM
  percent quench of YFP fluorescence, 100 uM ach: −10.05%
Acetylcholine 1 mM
  percent quench of YFP fluorescence, 1 mM ach: 32.11%
Acetylcholine 3 mM
  percent quench of YFP fluorescence, 3 mM ach: 57.37%
